Laboratory results: US20230331781A1, “PAR4 DERIVED PEPTIDES, ANALOGS AND USES THEREOF” (Yissum Research Development Company of the Hebrew …, priority 2019, published 2023)
Numbered stars: 1 amine (or outer) side, 2 acyl side, 3 side chain; on linkers, the order of the positions; unused ones are H or OH. Bridge positions count the residues as written; N and C are the ends. Square brackets hold non-standard residues; d marks the D form. Ends that are not written are not given here. GlyBU(C4) = Gly building unit (N-alpha-functionalized Gly) carrying a C4 alkyl chain (n = m = 4), bridged through a urea group; CO = O=C([*:1])[*:2]

Target: T1, PAR4-Akt association (Homo sapiens, UniProt P31749)
T1 construct: FLAG; expressed in transfected cells
T1 sequence (P31749 whole entry): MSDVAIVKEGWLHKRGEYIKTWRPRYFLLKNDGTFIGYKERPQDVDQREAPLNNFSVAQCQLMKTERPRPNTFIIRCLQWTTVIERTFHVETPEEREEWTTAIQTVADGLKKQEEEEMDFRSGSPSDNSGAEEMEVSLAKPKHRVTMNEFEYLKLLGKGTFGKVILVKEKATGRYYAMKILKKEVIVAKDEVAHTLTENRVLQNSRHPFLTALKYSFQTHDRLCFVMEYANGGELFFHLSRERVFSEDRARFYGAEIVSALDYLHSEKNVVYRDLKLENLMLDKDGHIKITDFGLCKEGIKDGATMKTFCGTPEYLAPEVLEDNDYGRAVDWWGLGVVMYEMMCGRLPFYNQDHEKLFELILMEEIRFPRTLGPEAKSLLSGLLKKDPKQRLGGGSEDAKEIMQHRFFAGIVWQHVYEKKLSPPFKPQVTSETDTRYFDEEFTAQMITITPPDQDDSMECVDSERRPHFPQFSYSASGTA
Test: PAR4-Akt association, immunoprecipitation in HEK293 cells transfected with flg-Par4 and AYPGKF activated
Type: cell-based
Conditions: HEK293 cells, 50 nM-150 μM, FIG. 8A
Procedure: Experiments shown in FIG. 3A-3C were carried out in MDA-MB-231 cells. […] Unpaired Student's t test was used. This experiment is a representative of three independent experiments performed in triplicates. […] HEK 293T cells were transfected with wt flg-Par4 followed by AYPGKF activation of PAR4. IP was performed using anti fig abs of cells treated or not with CTP4-A peptide and immunoblotting with anti-Akt abs.
FIG. 4A—PH-Akt module alone binds PAR4-C-tail but not mutant R25C. HEK 293 cells were transiently transfected with flg-Par4 construct and either with GFP-PH-Akt domain alone or GFP-R25C. IP of cell lysates following PAR4 AYPGKF activation was carried out using anti-flg abs. Detection of either Akt-PH domain alone associated with PAR4 was performed with anti-GFP. […] FIG. 4C—The PI3K inhibitor […] inhibits the binding of Akt to PAR4. Treatment of HEK 293 cells with LY294002 for various time points or not, following transient transfection with flg-Par4 and AYPGKF activation was performed. Cell lysates were immunoprecipitated with anti-flg antibodies, and anti-Akt was used to assess the association of Akt with the PAR4 C-tail. […] Amino acid residues of PAR4- and PAR2-PH binding motifs. FIG. 4E—mutations inserted into flg-Par4 generated flg-Par4MutE346A. HEK293 cells were transiently transfected with either wt flg-Par4 or flg-Par4MutE346A. IP of cell lysates following PAR4 activation was carried out using anti-flg abs. Detection of PAR4-Akt association was performed by anti Akt Abs. While association with wt Par4 is seen after 5 and 10 min AYPGKF PAR4 activation, when using flg-Par4 E346A no inhibition is seen and effective association with Akt is seen at 30 min activation. FIG. 4F—utations inserted into flg-Par4 generated flg-Par4Mut F347A and flg-Par4Mut D349A. HEK293 cells were transiently transfected with either wt flg-Par4 or flg-Par4Mut F347A or flg-Par4Mut D349A. IP of cell lysates following PAR4 activation was carried out using anti-f/g abs. Detection of PAR4-Akt association was performed by anti Akt Abs. While association with wt Par4 is seen after 5 min AYPGKF PAR4 activation, no such binding is obtained when using either flg-Par4 F347A or flg-Par4D349A.
HEK293 cells were transiently transfected with flg-Par4 followed by AYPGKF PAR4 activation in the presence and absence of PAR4c (4-4) within the range of 50 nM-150 μM. IP of cell lysates following different periods of activation was carried out using anti flg abs. Detection of Akt was performed by anti Akt abs. β-actin serves as a control gene for loading. […] Matrigel invasion before and after AYPGKF PAR4 activation and in the presence and absence of PAR4 c(4-4) inhibitor in the activated PAR4 cells. […] FIG. 8C—Histograms represent quantification of the cells/HPF invaded the Matrigel layer. […]

Pc(4-4): backbone cyclic analog of Formula I, m=n=4, ring size 30 atoms (S[GlyBU(C4)]EFRDK[GlyBU(C4)]; bridge 2-8 via CO; not fully specified; printed as SZ1EFRDKX3)
inhibition of Akt/PKB-PAR4 association (IP): strong inhibition | inhibition of Akt/PKB-PAR4 association (IP) (listed as PAR4 c(4-4)): inhibits
